T1: huCD148 on human endothelial cells (planar migration assay) (human, UniProt Q12913 36-1337)
T1 sequence (looked up): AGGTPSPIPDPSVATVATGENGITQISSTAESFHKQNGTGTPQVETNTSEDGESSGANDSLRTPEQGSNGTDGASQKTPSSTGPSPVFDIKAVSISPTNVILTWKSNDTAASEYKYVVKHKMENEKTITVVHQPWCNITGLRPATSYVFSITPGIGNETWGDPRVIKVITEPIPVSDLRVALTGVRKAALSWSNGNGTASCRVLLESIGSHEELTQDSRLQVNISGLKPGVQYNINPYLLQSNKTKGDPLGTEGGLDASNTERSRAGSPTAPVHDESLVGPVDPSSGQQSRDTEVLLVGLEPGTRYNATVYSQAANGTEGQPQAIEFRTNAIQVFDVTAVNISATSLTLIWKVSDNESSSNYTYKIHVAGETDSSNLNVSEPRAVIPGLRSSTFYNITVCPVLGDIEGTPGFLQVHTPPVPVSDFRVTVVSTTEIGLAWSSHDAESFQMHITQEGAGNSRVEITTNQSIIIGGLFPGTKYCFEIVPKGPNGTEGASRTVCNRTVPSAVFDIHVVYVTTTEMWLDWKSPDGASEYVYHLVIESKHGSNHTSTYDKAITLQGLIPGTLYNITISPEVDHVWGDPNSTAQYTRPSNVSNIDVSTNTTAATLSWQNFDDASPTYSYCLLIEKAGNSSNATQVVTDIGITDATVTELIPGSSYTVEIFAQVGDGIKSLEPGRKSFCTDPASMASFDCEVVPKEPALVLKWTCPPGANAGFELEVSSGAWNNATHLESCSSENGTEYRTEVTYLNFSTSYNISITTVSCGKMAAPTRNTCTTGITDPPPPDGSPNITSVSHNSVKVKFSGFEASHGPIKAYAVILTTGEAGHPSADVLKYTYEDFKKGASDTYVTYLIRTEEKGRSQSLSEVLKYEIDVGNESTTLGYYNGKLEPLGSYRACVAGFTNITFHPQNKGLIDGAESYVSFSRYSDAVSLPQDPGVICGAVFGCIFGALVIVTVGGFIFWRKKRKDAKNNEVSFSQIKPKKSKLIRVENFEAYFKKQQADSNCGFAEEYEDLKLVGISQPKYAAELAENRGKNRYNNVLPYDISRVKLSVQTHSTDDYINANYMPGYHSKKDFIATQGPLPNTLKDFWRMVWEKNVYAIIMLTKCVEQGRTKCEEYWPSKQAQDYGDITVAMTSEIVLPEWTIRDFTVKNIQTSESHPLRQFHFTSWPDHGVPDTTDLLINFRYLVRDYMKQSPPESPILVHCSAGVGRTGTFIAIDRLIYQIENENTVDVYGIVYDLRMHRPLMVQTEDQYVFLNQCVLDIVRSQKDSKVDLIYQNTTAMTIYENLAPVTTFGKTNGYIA


Target: T1, huCD148 on human endothelial cells …
Assay: cell-based or functional assay

Row | Binder | inhibiting human endothelial cell migration and/or inhibited angiogenesis in the corneal angiogenesis assay [%]
1 | Antibody No. 2 (Ab-2) (antibody, V domains shown) VH: not shown VL: EIVMTQSPSSLPASVGDRVTITCRASQNIKTYLHWYQQKPGKAPNLLIYAASNLQIGVPSRFSGSGSGTDFTLTISSLQPEDFATYFCQQSYITPPTFGQGTRLEIK | ≥ 20
2 | Antibody No. 1 (Ab-1) (antibody, V domains shown) VH: not shown VL: QAVLTQPSSVSGAPGQRVTISCTGSSSNIGAGYDVHWYQQLPGTAPKLLIYGNSNRPSGVPDRFSGSKSGTSASLAVTGLQAEDEADYYCQSYDSSLSDVVFGGGTKLTVL | ≥ 20
3 | Antibody No. 3 (Ab-3) (antibody, V domains shown) VH: GVQLVQSGAEVKKPGASVKVSCKASGYTFTSYYMHWVRQAPGQGLEWMGIINPSGGSTSYAQKFQGRVTMTRDTSTSTVYMELSSLRSEDTAVYYCARRVISGAFDIWGQGTMVTVSS VL: DIQMTQSPSTLSASIGDRVTITCRASEGIYHWLAWYQQKPGKAPKLLIYKASSLASGAPSRFSGSGSGTDFTLTISSLQPDDFATYYCQQYSNYPLTFGGGTKLEIK | ≥ 20
4 | Antibody No. 7 (Ab-7) (antibody, V domains shown) VH: EVQLVQSGAEVKKPGESLKISCKGYGYDFSRDWIAWVRQMPGKGLEWMGIIYPGDSDTRYSPSFEGQVTISADKSISTAYLQWRSLKASDTAMYYCARQRRLGWFDPWGQGTMVTVSS VL: RSVLTQPPSVSAAPGQKVTISCSGSTSNIGNNYVSWYQQHPGKAPKLMIYDVSKRPSGVPDRFSGSKSGNSASLDISGLQSEDEADYYCAAWDDSLSEFLFGTGTKLTVL | ≥ 20
5 | Antibody No. 6 (Ab-6) (antibody, V domains shown) VH: not shown VL: QSVLTQPPSASGTPGQRVTISCSGSSSNVGSNFVYWYQQFPGTAPKLLIYRNNQRPSGVPDRFSGSKSGTSASLAISGLRSEDEADYYCAAWDDTLNGHYVFGGGTKLTVL | ≥ 20
6 | Antibody No. 4 (Ab-4) (antibody, V domains shown) VH: QVQLVQSGAEVKKPGASVKVSCKASGYTFTSYYMHWVRQAPGQGLEWMGIINPSDGSTRYVEKFQGRVTMTRDTSTSTVYMELSSLRSEDTAVYFCARGMGPGPHYHFYMDVWGKGTMVTVSS VL: SSELTQDPAVSVALGQTVRITCQGDSLRSYYTNWFQQKPGQAPLLVVYAKNKRPSGIPDRFSGSSSGNTASLTITGAQAEDEADYYCHSRDSGGNHVLFGGGTKLTVL | ≥ 20

Next, values leading:

Row | inhibiting human endothelial cell migration and/or inhibited angiogenesis in the corneal angiogenesis assay [%] | Binder
7 | ≥ 20 | Antibody No. 8 (Ab-8) (antibody, V domains shown) VH: not shown VL: SYVLTQPPSASGTPGQRVTISCSGSSSNIGSNYVYWYQQLPGTAPKLLIYRNNQRPSGVPDRFSGSKSGTSASLAISGLQSEDEADYYCEAWDDNVDGPVFGGGTKLTVL
8 | ≥ 20 | Antibody No. 5 (Ab-5) (antibody, V domains shown) VH: QVQLVQSGAEVKKPGASVKVSCKASGYTFTGQYIHWVRQAPGQGLEWMGWISAYNGYTDYAQKVQGRVTMTTDTSTSTAYMELRSLRSDDTAVYYCAREVWPVAAADTFSVFDIWGRGTLVTVSS VL: SSELTQDPAVSVALGQTVRITCQGDSLRSYYASWYQQKPGQAPVLVIYGKNNRPSGIPDRFSGSSSGNTASLTITGAQAEDEADYYCNSRDSSGNHVVFGGGTKLTVL

— patent US20090263383A1 (Amgen, published 2009)
